# In patent US20140227324A1:
# Target: mouse IL12Rβ1 (IL12 Receptor Beta 1, transmembrane-containing form) (mouse) (UniProt Q60837)
# Experiment: cell-based or functional assay
# UniProt Q60837, sequence (Q60837 20-738): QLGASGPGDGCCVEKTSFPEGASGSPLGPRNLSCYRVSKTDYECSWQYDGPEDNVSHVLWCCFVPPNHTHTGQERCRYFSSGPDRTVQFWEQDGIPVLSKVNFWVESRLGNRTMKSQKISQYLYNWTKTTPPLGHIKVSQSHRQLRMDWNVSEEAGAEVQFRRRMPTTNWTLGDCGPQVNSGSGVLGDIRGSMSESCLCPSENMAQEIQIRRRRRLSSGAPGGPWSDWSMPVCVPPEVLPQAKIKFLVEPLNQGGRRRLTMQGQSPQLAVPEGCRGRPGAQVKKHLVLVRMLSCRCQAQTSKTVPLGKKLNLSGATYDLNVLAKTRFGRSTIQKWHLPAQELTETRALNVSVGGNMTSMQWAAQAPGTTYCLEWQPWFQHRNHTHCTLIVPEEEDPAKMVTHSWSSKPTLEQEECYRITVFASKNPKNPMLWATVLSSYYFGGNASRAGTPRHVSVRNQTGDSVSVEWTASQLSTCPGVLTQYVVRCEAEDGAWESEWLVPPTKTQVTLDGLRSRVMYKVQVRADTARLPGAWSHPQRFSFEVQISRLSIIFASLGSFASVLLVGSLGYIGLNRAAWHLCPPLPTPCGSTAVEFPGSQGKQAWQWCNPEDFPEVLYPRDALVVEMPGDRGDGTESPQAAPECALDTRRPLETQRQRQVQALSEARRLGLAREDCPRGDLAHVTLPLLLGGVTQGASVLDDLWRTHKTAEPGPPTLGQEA
"STAT4 activity (GAS-promoter luciferase reporter), IL12Rβ1ΔTM co-transfected alongside IL12Rβ1 and IL12Rβ2 [% increase]","NIH/3T3 migration toward IL12(p40)2, IL12Rβ1ΔTM co-transfected alongside IL12Rβ1 [% increase]",Substance
30,,IL12 (ligand)
,50,IL12(p40)2 (ligand)
